Source: patent publication US20220288223

B1: MMP-12 (protein)
chain: GPVWRKHYITYRINNYTPDMNREDVDYAIRKAFQVWSNVTPLKFSKINTGMADILVVFARGAHGDFHAFDGKGGILAHAFGPGSGIGGDAHFDEDEFWTTHSGGTNLFLTAVHEIGHSLGLGHSSDPKAVMFPTYKYVDINTFRLSADDIRGIQSLYGDPKENQRLPNPDNSEPALCDPNLSFDAVTTVGNKIFFFKDRFFWLKVSERPKTSVNLISSLWPTLPSGIEAAYEIEARNQVFLFKDDKYWLISNLRPEPNYPKSIHSFGFPNFVKKIDAAVFNPRFYRTYFFVDNQYWRYDERRQMMDPGYPKLITKNFQGIGPKIDAVFYSKNKYYYFFQGSNQFEYDFLLQRITKTLKSNSWFGC
B2: Chymase (protein)
chain: IIGGTECKPHSRPYMAYLEIVTSNGPSKFCGGFLIRRNFVLTAAHCAGRSITVTLGAHNITEEEDTWQKLEVIKQFRHPKYNTSTLHHDIMLLKLKEKASLTLAVGTLPFPSQFNFVPPGRMCRVAGWGRTGVLKPGSDTLQEVKLRLMDPQACSHFRDFDHNLQLCVGNPRKTKSAFKGDSGGPLLCAGVAQGIVSYGRSDAKPPAVFTRISHYRPWINQILQAN
B3: MMP-2 (protein)
chain: YNFFPRKPKWDKNQITYRIIGYTPDLDPETVDDAFARAFQVWSDVTPLRFSRIHDGEADIMINFGRWEHGDGYPFDGKDGLLAHAFAPGTGVGGDSHFDDDELWTLGEGQVVRVKYGNADGEYCKFPFLFNGKEYNSCTDTGRSDGFLWCSTTYNFEKDGKYGFCPHEALFTMGGNAEGQPCKFPFRFQGTSYDSCTTEGRTDGYRWCGTTEDYDRDKKYGFCPETAMSTVGGNSEGAPCVFPFTFLGNKYESCTSAGRSDGKMWCATTANYDDDRKWGFCPDQGYSLFLVAAHEFGHAMGLEHSQDPGALMAPIYTYTKNFRLSQDDIKGIQELYGASPDIDLGTGPTPTLGPVTPEICKQDIVFDGIAQIRGEIFFFKDRFIWRTVTPRDKPMGPLLVATFWPELPEKIDAVYEAPQEEKAVFFAGNEYWIYSASTLERGYPKPLTSLGLPPDVQRVDAAFNWSKNKKTYIFAGDKFWRYNEVKKKMDPGFPKLIADAWNAIPDNLDAVVDLQGGGHSYFFKGAYYLKLENQSLKSVKFGSIKSDWLGC
B4: Plasmin (protein)
chain: KVYLSECKTGNGKNYRGTMSKTKNGITCQKWSSTSPHRPRFSPATHPSEGLEENYCRNPDNDPQGPWCYTTDPEKRYDYCDILECEEECMHCSGENYDGKISKTMSGLECQAWDSQSPHAHGYIPSKFPNKNLKKNYCRNPDRELRPWCFTTDPNKRWELCDIPRCTTPPPSSGPTYQCLKGTGENYRGNVAVTVSGHTCQHWSAQTPHTHNRTPENFPCKNLDENYCRNPDGKRAPWCHTTNSQVRWEYCKIPSCDSSPVSTEQLAPTAPPELTPVVQDCYHGDGQSYRGTSSTTTTGKKCQSWSSMTPHRHQKTPENYPNAGLTMNYCRNPDADKGPWCFTTDPSVRWEYCNLKKCSGTEASVVAPPPVVLLPDVETPSEEDCMFGNGKGYRGKRATTVTGTPCQDWAAQEPHRHSIFTPETNPRAGLEKNYCRNPDGDVGGPWCYTTNPRKLYDYCDVPQCAAPSFDCGKPQVEPKKCPGRVVGGCVAHPHSWPWQVSLRTRFGMHFCGGTLISPEWVLTAAHCLEKSPRPSSYKVILGAHQEVNLEPHVQEIEVSRLFLEPTRKDIALLKLSSPAVITDKVIPACLPSPNYVVADRTECFITGWGETQGTFGAGLLKEAQLPVIENKVCNRYEFLNGRVQSTELCAGHLAGGTDSCQGDSGGPLVCFEKDKYILQGVTSWGLGCARPNKPGVYVRVSRFVTWIEGVMRNN
B5: CathepsinK (protein)
chain: APDSVDYRKKGYVTPVKNQGQCGSCWAFSSVGALEGQLKKKTGKLLNLSPQNLVDCVSENDGCGGGYMTNAFQYVQKNRGIDSEDAYPYVGQEESCMYNPTGKAAKCRGYREIPEGNEKALKRAVARVGPVSVAIDASLTSFQFYSKGVYYDESCNSDNLNHAVLAVGYGIQKGNKHWIIKNSWGENWGNKGYILMARNKNNACGIANLASFPKM

Tests used:
[1] = molecular target: RACPP with substrate TIAHLA
[2] = molecular target: RACPP with substrate PLGLEEA
[3] = molecular target: RACPP with substrate PLGC(me)AG
[4] = molecular target: RACPP with substrate TLSLEH
[5] = molecular target: RACPP with substrate SYPYKY
[6] = molecular target: RACPP with substrate KLRFSQK
[7] = molecular target: RACPP with substrate GVAYSGA
[8] = molecular target: RACPP with substrate YGRAAA
[9] = molecular target: RACPP with substrate Nle-TPRSFL
[10] = molecular target: RACPP with substrate TGRAAA
[11] = molecular target: RACPP with substrate RLQLK(Ac)L

| Protein | Kcat/Km [1] | Kcat/Km [2] | Kcat/Km [3] | Kcat/Km [4] | Kcat/Km [5] | Kcat/Km [6] | Kcat/Km [7] | Kcat/Km [8] | Kcat/Km [9] | Kcat/Km [10] | Kcat/Km [11] |
| --- | --- | --- | --- | --- | --- | --- | --- | --- | --- | --- | --- |
| B1 | 2320 | 10500 | 9170 | 1400 | 14000 | – | – | – | – | – | – |
| B2 | 11500 | – | – | 2270 | 16400 | 1970 | 48100 | – | – | – | – |
| B3 | 16200 | 2420 | 36400 | 11400 | – | – | – | 426 | – | – | – |
| B4 | – | – | – | – | 19400 | 6510 | – | 7720 | 13000 | 4160 | – |
| B5 | 833 | 787 | 2640 | 497 | – | 7440 | 1070 | – | 2350 | – | 2870 |
